# From article PMC9135701
# Target: spGFP_(1-10/11)-MSP1D1
# Test: SEC; purified scaffold protein without lipids; Superose 6 Increase 10/300 GL, 50 mM Tris-HCl pH 8, 100 mM NaCl, 5% glycerol; monomer (intramolecular complementation) against dimer (intermolecular complementation)
substance,measurement,value
spGFP_(1-10/11)-MSP1D1,percent dimeric,30%
same,stoichiometry N,2
